In patent publication US20220119509A1 (ARGENX, published 2022):
Numbering of substitutions follows the chain as printed. Numbers in names are those of the source. Each block holds one binder with its values, some of them ahead of it.

How the values were obtained:
[1] = molecular target: T1, huC2b with mouse S2 (huC2b-mS2) (mouse, UniProt P06681 21-243 (human entry)); assay: sandwich ELISA: coated anti-C2-5F2.4, HEK293 supernatant, detection with anti-FLAG
T1 chain: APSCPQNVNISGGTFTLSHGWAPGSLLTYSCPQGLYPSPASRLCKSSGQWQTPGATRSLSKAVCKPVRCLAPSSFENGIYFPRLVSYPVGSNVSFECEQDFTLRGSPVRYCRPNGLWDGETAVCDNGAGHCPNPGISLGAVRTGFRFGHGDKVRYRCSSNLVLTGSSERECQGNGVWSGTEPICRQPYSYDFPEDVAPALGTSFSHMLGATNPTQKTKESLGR

[2] = molecular target: T2, wild type C2 with C-terminal FLAG tag (human, UniProt P06681 21-752); assay: sandwich ELISA: coated anti-C2-5F2.4, HEK293 supernatant diluted 20 times, detection with anti-FLAG
T2 construct: Secreted into the supernatant of transfected HEK293T cells; not shown: C-terminal FLAG tag
T2 sequence: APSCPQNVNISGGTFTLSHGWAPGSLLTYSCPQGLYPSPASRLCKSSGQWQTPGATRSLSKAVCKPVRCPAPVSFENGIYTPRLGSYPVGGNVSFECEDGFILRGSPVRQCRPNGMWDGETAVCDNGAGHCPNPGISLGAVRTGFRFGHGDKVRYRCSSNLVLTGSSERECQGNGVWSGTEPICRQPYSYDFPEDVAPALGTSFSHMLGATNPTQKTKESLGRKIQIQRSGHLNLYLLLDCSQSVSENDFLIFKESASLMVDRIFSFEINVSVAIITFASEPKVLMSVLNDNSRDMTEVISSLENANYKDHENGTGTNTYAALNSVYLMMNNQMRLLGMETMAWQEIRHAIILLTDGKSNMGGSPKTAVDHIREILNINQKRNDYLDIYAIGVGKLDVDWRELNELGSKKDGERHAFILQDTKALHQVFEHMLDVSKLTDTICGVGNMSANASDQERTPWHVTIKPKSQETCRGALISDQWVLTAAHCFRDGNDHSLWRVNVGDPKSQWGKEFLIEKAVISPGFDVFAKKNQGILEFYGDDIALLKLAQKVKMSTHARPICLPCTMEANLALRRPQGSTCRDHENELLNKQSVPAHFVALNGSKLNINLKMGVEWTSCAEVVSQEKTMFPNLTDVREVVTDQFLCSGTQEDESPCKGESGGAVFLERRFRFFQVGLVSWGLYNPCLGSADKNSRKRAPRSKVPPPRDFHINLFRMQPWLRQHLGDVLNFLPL
Description: FIG. 12 depicts results obtained with a domain swap ELISA performed with anti-C2-5F2.4. Anti-C2-5F2.4 mAb (human IgG4 S241P VH4/VL3 LC-13/03-163A Bioceros) was used for coating, plates were incubated with 20 times diluted supernatant of HEK293 transfectants, and binding was detected by an anti-FLAG Ab. Representative results from two independent experiments with similar outcome.
Next, the recognition of the swap mutants by the anti-C2-5F2.4 antibody was investigated. To this effect, microplates (Maxisorp, NUNC, Cat #439454) were coated overnight with 2 μg/mL anti-C2-5F2.4 in 100 μL PBS. Plates were washed 4 times with PBS with 0.05% Tween-20 and blocked with 200 μL PBS with 0.1% Tween-20 with 1% bovine serum albumin (BSA) (PBST-BSA) for 1 hour at RT. After washing, 100 μL culture supernatant containing mutants were added 20× diluted in PBST-BSA and incubated for 2 hours at RT with agitation. After washing, as detection antibody 1 μg/mL biotinylated anti-FLAG (clone M2, Sigma-Aldrich) was added in PBST-BSA for 1 hour at RT. The plate was washed and 1 μg/mL streptavidin-POD conjugate (Roche, Cat #11089153001) was added and incubated in the dark for 30 minutes. […] Absorbance was measured at 450 nm on a microplate reader (BioRad, iMark Microplate reader).

[3] = molecular target: T3, human C2b fragment (huC2b) (human, UniProt P06681 21-243); assay: as above
T3 construct: Supernatant of transfected HEK293 cells; not shown: FLAG tag (the construct is detected with anti-FLAG)
T3 sequence: T1 chain with L70P, S73V, F81T, V85G, S91G, Q99D, D100G, T102I, Y110Q, L116M

[4] = molecular target: T4, mouse C2 (mouse, UniProt P21180 19-760, limits assumed); assay: not described
T4 sequence (looked up): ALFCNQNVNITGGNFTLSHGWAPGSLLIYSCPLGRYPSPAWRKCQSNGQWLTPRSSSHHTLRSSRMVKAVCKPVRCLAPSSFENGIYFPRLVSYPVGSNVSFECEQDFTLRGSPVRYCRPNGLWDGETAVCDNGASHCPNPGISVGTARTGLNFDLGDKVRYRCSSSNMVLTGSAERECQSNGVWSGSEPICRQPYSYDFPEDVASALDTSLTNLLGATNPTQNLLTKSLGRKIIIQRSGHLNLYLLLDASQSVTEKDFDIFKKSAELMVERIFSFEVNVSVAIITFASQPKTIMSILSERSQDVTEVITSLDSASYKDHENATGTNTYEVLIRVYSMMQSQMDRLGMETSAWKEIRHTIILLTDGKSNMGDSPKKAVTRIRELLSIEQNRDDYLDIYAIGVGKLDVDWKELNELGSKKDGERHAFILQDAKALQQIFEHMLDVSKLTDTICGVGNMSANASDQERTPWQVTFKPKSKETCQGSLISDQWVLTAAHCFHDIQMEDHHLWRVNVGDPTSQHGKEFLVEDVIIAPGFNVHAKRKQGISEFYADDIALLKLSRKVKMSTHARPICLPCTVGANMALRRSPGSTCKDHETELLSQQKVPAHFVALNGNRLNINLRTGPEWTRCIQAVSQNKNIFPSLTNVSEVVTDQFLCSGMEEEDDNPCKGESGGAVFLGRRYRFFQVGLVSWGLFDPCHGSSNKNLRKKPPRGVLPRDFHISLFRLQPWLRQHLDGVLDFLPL

[5] = molecular target: T5, human complement factor C2 (human, UniProt P06681 21-752); assay: SPR (Biacore), C2 coated on the chip, Fab in solution, 1:1 model; C2 on the chip, Fab in solution
T5 construct: also called human C2; recombinant human C2
T5 sequence: T2 sequence

binding result [1]: no binding
binding result [2]: binds
binding result [3]: binds
binding result [4]: no binding
B1: anti-C2-5F2.4 mAb (human IgG4 S241P VH4/VL3 LC-13/03-163A Bioceros) (antibody, V domains shown)
VH: EVQLVQSGAEVKKPGASVKVSCKASGYTFTDYNMDWVRQATGQGLEWIGDINPNYESTGYNQKFKGRATMTVNKSISTAYMELSSLRSEDTAVYYCAREDDHDAFAYWGQGTLVTVSS
VL: DNVLTQSPDSLAVSLGERATISCRASKSVRTSGYNYMHWYQQKPGQPPKLLIYLASNLKSGVPDRFSGSGSGTDFTLTISSLQAEDAATYYCQHSRELPYTFGQGTKLEIK
notes: Human IgG4 S241P; also called humanized 5F2.4

Kd [5]: ~0.3 nM
B2: Fab of ARGX-117 (Fab, V domains shown)
VH: B1 VH with N73D
VL: B1 VL
